Results reported in patent publication US9388213B2, “Polycomb repressive complex 2 (PRC2) inhibitors and uses thereof” (The Rockefeller University, priority 2012, dated 2016).

What was measured:
PRC2 [1] = target: T1, PRC2 (Homo sapiens, UniProt Q15910); assay: kinetic studies of PRC2 methyltransferase assays with varying mononucleosome substrate concentrations; format: biochemical; conditions: initial velocity versus nucleosome substrate concentration
T1 construct: Mono Q fractions containing stoichiometric components of PRC2 were pooled; made in house; FLAG-M2 immunoprecipitation from nuclear extract, then Mono Q
T1 sequence (Q15910 whole entry): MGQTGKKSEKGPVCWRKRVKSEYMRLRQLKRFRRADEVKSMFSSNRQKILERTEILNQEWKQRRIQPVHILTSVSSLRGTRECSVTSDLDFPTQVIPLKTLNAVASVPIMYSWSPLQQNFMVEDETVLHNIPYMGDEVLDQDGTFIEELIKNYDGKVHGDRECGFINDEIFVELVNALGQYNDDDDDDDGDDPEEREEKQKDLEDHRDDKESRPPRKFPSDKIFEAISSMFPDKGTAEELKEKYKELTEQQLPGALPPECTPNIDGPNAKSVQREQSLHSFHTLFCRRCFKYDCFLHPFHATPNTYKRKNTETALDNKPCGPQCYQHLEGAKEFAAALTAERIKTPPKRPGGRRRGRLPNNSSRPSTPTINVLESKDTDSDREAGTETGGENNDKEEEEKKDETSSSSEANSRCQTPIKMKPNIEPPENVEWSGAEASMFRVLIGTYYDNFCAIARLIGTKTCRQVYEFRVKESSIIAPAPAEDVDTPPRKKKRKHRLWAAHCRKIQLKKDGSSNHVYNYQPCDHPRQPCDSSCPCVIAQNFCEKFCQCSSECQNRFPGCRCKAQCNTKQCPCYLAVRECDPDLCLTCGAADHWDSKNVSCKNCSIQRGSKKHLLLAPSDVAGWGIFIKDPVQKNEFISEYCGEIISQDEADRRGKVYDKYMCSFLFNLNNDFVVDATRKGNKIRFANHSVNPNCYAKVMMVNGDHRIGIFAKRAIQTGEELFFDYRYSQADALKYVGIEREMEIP
T1 sequence (O75530 whole entry partner): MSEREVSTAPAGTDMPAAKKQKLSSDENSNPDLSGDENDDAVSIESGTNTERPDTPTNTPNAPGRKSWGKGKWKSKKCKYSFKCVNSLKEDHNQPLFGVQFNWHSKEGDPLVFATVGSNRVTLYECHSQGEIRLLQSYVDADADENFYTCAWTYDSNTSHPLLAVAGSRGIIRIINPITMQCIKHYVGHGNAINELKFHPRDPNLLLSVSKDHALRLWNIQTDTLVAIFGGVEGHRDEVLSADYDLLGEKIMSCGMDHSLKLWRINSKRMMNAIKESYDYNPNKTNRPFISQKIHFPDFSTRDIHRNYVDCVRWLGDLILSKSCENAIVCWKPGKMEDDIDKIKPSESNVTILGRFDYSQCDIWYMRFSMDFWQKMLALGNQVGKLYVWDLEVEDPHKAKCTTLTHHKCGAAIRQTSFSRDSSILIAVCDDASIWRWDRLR
T1 sequence (Q15022 whole entry partner): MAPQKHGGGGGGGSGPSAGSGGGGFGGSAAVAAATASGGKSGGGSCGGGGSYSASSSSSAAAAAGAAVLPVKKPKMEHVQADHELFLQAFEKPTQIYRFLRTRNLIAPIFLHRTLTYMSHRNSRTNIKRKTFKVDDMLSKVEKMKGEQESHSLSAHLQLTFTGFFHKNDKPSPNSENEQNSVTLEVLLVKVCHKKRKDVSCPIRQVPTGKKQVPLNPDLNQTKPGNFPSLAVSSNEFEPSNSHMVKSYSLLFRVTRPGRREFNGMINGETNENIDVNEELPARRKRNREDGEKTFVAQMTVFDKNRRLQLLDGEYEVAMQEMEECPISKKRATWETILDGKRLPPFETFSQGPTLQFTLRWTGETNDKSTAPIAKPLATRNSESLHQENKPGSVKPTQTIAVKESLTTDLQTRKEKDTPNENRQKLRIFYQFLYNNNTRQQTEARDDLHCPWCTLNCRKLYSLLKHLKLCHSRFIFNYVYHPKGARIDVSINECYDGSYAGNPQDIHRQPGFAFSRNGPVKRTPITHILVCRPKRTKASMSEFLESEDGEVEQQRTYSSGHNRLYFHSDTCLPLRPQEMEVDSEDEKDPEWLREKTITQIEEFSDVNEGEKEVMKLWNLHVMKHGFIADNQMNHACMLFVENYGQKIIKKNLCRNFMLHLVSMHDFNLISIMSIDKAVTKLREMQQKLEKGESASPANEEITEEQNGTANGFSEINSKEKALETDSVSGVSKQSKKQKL
T1 sequence (Q09028 whole entry partner): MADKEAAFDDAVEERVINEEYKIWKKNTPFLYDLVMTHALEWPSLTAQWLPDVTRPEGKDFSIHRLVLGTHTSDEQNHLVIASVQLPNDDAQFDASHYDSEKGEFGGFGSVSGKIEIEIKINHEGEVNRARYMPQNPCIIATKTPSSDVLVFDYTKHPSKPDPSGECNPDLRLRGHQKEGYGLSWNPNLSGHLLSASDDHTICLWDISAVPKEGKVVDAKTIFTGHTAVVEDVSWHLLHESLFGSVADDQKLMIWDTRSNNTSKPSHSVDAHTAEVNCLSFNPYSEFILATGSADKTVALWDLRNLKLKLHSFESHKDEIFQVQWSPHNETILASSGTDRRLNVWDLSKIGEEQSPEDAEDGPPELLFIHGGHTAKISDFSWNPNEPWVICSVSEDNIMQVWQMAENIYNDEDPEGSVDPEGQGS
Procedure: Purified PRC2, peptides, and chromatin substrates were added to reaction buffer (50 mM HEPES, pH 7.9, 0.5 mM DTT, 0.4 mM PMSF). Labeled S-adenosyl-methionine (3H-SAM) was added to reactions (225 μM), followed by incubation at 30° C. The reactions were stopped by binding to P81 filter paper (GE Health) for scintillitation counting, or the addition of SDS-PAGE for autoradiography.

PRC2 [2] = target: T1, PRC2; assay: in vitro PRC2 histone methyltransferase reactions with H3 peptides added in trans; format: biochemical; conditions: for effect on PRC2 activity relative to the no peptide control: H3 peptides (18-37) in trans, purified wildtype mononucleosomes (FIG. 3A)
Procedure: Human EED protein containing an N-terminal FLAG-epitope was cloned in pCDH-EF1alpha-IRES-Puro (System Biosciences). Resulting lentivirus were used to establish stable 293T and Hela cell lines that express FLAG-hEED. Nuclear extracts were prepared from washed cell pellets as previously described (Lewis et al., “Daxx is an H3.3-specific Histone Chaperone and Cooperates with ATRX in Replication-Independent Chromatin Assembly at Telomeres,” Proc Natl Acad Sci USA 107: 14075-14080 (2010), which is hereby incorporated by reference in its entirety). FLAG-M2 immunoprecipitation of clarified nuclear extract was performed, followed by washing (250 mM KCl) and elution with 3XFLAG peptide (400 ng/μL). Eluate from the FLAG M2 beads was loaded onto a Mono Q ion exchange column. Mono Q fractions containing stoichiometric components of PRC2 were pooled. HEK293T cells expressing epitope-tagged Histone H3 were hypotonically lysed. Washed nuclei were resuspended in micrococcal nuclease digestion buffer (20 mM HEPES, pH 7.9, 30 mM KCl, 2 mM CaCl2, 0.4 mM PMSF, 3× Protease Inhibitor Cocktail (Roche). Micrococcal nuclease (Worthingtons, 15 U/μL) was added to nuclei, followed by incubation at 30° C. for 5-30 minutes. Reactions were returned to ice, followed by addition of 3 mM EDTA, 3 mM EGTA, 120 mM NaCl, 0.1% Triton. Nuclei were dounced (Wheaton A×10), followed by centrifugation 15K rpm in SS34. FLAG M2 beads were incubated with clarified supernatant at 4° C. Washed beads (150 mM KCl) were eluted with 3× FLAG peptide ([…]). DNA from M2 FLAG eluate fractions was resolved by gel electrophoresis for estimation of chromatin lengths. Fractions of similar chromatin (DNA) lengths were pooled and dialyzed (20 mM HEPES, pH 7.9, 10 mM KCl, 10% Glycerol, 0.4 mM PMSF, 0.5 mM DTT). Purified PRC2, peptides, and chromatin substrates were added to reaction buffer (50 mM HEPES, pH 7.9, 0.5 mM DTT, 0.4 mM PMSF). Labeled S-adenosyl-methionine (3H-SAM) was added to reactions (225 μM), followed by incubation at 30° C. The reactions were stopped by binding to P81 filter paper (GE Health) for scintillitation counting, or the addition of SDS-PAGE for autoradiography.

Substance: K27ac: H3 peptide (18-37) acetylated at K27
- effect on apparent Vmax (PRC2 [1]): did not decrease
- change in PRC2 activity on titration against K27me3 peptide (PRC2 [2]; 9:1 ratio of K27ac:K27me3 peptide (FIG. 3D)): no decrease
- effect on PRC2 activity relative to the no peptide control (PRC2 [2]): little stimulation
- effect on PRC2 activity on titration into reactions with constant low concentration of K27me3 peptide (PRC2 [2]; constant low K27me3 peptide (FIG. 3F)): no decrease

Substance: K27me3: H3 peptide trimethylated at K27, allosteric activator of PRC2
- effect on PRC2 activity towards mononucleosome or oligonucleosome templates (PRC2 [2]; 10 or 100 μM peptide (FIG. 2C)): strongly stimulated
- effect on PRC2 activity relative to the no peptide control (PRC2 [2]): strongly stimulated

Substance: Lys^27 replaced by Leu: H3 peptide (18-37) containing Lys27 replaced by Leu (KQLATKAARLSAPSTGGVKK)
- inhibitory effect on PRC2 in vitro (PRC2 [2]; 50 or 100 μM H3 peptide (18-37), reconstituted nucleosomes (FIGS. 5B and 5C)): no inhibitory effect

Substance: unmodified: unmodified H3 peptide (18-37)
- effect on PRC2 activity relative to the no peptide control (PRC2 [2]): little stimulation
